Results from IntAct's records for PubMed 31695625.

Columns and labels:
[1] = target: T1, SLC2A9, Q9NRM0-1
T1 sequence: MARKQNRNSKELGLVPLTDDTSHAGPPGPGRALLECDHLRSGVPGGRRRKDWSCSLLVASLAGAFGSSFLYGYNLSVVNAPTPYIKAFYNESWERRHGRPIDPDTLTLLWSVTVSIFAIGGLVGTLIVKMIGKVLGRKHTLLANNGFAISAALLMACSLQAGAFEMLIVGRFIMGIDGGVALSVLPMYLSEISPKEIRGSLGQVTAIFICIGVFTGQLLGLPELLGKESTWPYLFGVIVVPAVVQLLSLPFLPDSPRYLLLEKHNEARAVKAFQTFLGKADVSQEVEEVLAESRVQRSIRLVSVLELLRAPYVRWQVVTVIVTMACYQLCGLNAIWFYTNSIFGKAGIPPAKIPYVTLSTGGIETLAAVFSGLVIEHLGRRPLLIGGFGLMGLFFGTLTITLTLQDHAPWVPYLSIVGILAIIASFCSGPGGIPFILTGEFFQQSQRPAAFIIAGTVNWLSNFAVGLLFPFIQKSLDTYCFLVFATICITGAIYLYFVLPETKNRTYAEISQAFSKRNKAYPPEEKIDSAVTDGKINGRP

[2] = target: T2, SLC2A9, Q9NRM0-2
T2 sequence: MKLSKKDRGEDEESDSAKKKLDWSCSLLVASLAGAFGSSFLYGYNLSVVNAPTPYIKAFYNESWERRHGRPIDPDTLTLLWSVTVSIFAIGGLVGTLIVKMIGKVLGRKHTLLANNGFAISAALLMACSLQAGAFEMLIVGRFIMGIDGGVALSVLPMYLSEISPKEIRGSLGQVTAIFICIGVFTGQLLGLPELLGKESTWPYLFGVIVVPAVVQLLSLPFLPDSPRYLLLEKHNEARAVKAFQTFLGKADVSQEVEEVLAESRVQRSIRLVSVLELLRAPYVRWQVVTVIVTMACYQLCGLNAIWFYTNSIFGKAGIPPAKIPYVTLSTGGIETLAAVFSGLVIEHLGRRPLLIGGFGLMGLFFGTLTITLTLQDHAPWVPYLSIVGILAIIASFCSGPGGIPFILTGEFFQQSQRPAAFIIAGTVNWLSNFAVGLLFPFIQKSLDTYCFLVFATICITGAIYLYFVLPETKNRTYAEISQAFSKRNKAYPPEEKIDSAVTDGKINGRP

| Substance | effect of a mutation on the interaction [1] | effect of a mutation on the interaction [2] |
| --- | --- | --- |
| Integral membrane protein 2B (Homo sapiens) (from UniProt Q9Y287) E261A | with no effect | with no effect |
| Integral membrane protein 2B (Homo sapiens) (from UniProt Q9Y287) N170Q | decreasing interaction strength | – |
